Measurements: US20220202905A1, “COMPOSITION FOR PREVENTING OR TREATING NEUROTROPHIC KERATITIS WHICH CONTAINS PACAP PEPTIDE OR STABILIZED PACAP PEPTIDE” (SENJU PHARMACEUTICAL CO., LTD., priority 2019, published 2022)
Square brackets hold non-standard residues; d marks the D form. Ala(1H-tetrazol-5-yl) = N[C@@H](Cc1nnn[nH]1)C(=O)O

T1: PAC1 receptor (UniProt P41586 21-468, limits assumed)
T1 sequence (looked up): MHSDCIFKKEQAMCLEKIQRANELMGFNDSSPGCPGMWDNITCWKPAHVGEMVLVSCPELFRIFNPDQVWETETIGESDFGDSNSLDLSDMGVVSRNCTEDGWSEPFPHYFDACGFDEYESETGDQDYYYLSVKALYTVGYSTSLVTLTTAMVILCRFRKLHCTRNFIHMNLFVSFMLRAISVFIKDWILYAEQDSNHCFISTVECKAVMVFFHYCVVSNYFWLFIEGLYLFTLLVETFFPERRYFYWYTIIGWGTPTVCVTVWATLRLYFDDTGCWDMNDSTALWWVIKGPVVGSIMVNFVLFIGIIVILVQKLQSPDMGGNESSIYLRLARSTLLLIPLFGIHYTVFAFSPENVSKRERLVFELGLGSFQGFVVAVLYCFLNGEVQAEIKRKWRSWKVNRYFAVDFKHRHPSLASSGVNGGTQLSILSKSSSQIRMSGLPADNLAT

T2: VPAC1 receptor (UniProt P32241 31-457, limits assumed)
T2 sequence (looked up): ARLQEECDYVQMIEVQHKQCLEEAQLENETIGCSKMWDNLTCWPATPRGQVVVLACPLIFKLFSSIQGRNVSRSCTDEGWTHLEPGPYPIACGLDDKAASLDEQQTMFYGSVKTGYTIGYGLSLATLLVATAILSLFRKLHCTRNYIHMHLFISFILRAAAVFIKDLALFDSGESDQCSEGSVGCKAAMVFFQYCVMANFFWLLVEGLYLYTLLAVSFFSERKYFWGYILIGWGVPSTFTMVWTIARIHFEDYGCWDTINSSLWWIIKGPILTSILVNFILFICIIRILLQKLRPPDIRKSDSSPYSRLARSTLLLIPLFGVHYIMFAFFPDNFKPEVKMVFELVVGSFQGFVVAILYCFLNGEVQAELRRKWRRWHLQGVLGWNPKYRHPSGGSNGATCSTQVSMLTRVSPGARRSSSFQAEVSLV


Assays:
[1] = target: T1, PAC1 receptor; assay: cell-based or functional assay
[2] = target: T2, VPAC1 receptor; assay: cell-based or functional assay

EC50 (PAC1R), cAMP inducing effect [1]	EC50 (VPAC1R), cAMP inducing effect [2]	Binder
0.21 nM	0.089 nM	Ac-HS[Ala(1H-tetrazol-5-yl)]AIFT[Ala(1H-tetrazol-5-yl)]SYSRYRKAAAVKKYLAAVL-NH2 (SMILES CC[C@H](C)[C@H](NC(=O)[C@H](C)NC(=O)[C@H](Cc1nnn[nH]1)NC(=O)[C@H](CO)NC(=O)[C@H](Cc1c[nH]cn1)NC(C)=O)C(=O)N[C@@H](Cc1ccccc1)C(=O)N[C@H](C(=O)N[C@@H](Cc1nnn[nH]1)C(=O)N[C@@H](CO)C(=O)N[C@@H](Cc1ccc(O)cc1)C(=O)N[C@@H](CO)C(=O)N[C@@H](CCCNC(=N)N)C(=O)N[C@@H](Cc1ccc(O)cc1)C(=O)N[C@@H](CCCNC(=N)N)C(=O)N[C@@H](CCCCN)C(=O)N[C@@H](C)C(=O)N[C@@H](C)C(=O)N[C@@H](C)C(=O)N[C@H](C(=O)N[C@@H](CCCCN)C(=O)N[C@@H](CCCCN)C(=O)N[C@@H](Cc1ccc(O)cc1)C(=O)N[C@@H](CC(C)C)C(=O)N[C@@H](C)C(=O)N[C@@H](C)C(=O)N[C@H](C(=O)N[C@@H](CC(C)C)C(N)=O)C(C)C)C(C)C)[C@@H](C)O) [Peptide 34]
0.148 nM	0.076 nM	Ac-HS[Ala(1H-tetrazol-5-yl)]AIFT[Ala(1H-tetrazol-5-yl)]SYSRYRKQAAVKKYLAAVL-NH2 (SMILES CC[C@H](C)[C@H](NC(=O)[C@H](C)NC(=O)[C@H](Cc1nnn[nH]1)NC(=O)[C@H](CO)NC(=O)[C@H](Cc1c[nH]cn1)NC(C)=O)C(=O)N[C@@H](Cc1ccccc1)C(=O)N[C@H](C(=O)N[C@@H](Cc1nnn[nH]1)C(=O)N[C@@H](CO)C(=O)N[C@@H](Cc1ccc(O)cc1)C(=O)N[C@@H](CO)C(=O)N[C@@H](CCCNC(=N)N)C(=O)N[C@@H](Cc1ccc(O)cc1)C(=O)N[C@@H](CCCNC(=N)N)C(=O)N[C@@H](CCCCN)C(=O)N[C@@H](CCC(N)=O)C(=O)N[C@@H](C)C(=O)N[C@@H](C)C(=O)N[C@H](C(=O)N[C@@H](CCCCN)C(=O)N[C@@H](CCCCN)C(=O)N[C@@H](Cc1ccc(O)cc1)C(=O)N[C@@H](CC(C)C)C(=O)N[C@@H](C)C(=O)N[C@@H](C)C(=O)N[C@H](C(=O)N[C@@H](CC(C)C)C(N)=O)C(C)C)C(C)C)[C@@H](C)O) [Peptide 32]
0.089 nM	0.143 nM	Ac-HA[Ala(1H-tetrazol-5-yl)]AIFT[Ala(1H-tetrazol-5-yl)]SYSRYRKQAAVKKYLAAVL-NH2 (SMILES CC[C@H](C)[C@H](NC(=O)[C@H](C)NC(=O)[C@H](Cc1nnn[nH]1)NC(=O)[C@H](C)NC(=O)[C@H](Cc1c[nH]cn1)NC(C)=O)C(=O)N[C@@H](Cc1ccccc1)C(=O)N[C@H](C(=O)N[C@@H](Cc1nnn[nH]1)C(=O)N[C@@H](CO)C(=O)N[C@@H](Cc1ccc(O)cc1)C(=O)N[C@@H](CO)C(=O)N[C@@H](CCCNC(=N)N)C(=O)N[C@@H](Cc1ccc(O)cc1)C(=O)N[C@@H](CCCNC(=N)N)C(=O)N[C@@H](CCCCN)C(=O)N[C@@H](CCC(N)=O)C(=O)N[C@@H](C)C(=O)N[C@@H](C)C(=O)N[C@H](C(=O)N[C@@H](CCCCN)C(=O)N[C@@H](CCCCN)C(=O)N[C@@H](Cc1ccc(O)cc1)C(=O)N[C@@H](CC(C)C)C(=O)N[C@@H](C)C(=O)N[C@@H](C)C(=O)N[C@H](C(=O)N[C@@H](CC(C)C)C(N)=O)C(C)C)C(C)C)[C@@H](C)O) [Peptide 33]
